Test results reported in PMC6994035.

Columns and labels:
Test in all cases: EMSA
MBD-YFP (MBD of Mecp2) = MBD-YFP (MBD of Mecp2) (UniProt Q9Z2D6 77-167)
mcherry-Tet1CD = mcherry-Tet1CD (UniProt Q3URK3 1367-2039)
Mbd4-Strep = Mbd4-Strep (UniProt Q9Z2D7 1-554)

Measured: binding result

Chain of mcherry-Tet1CD (Q3URK3 1367-2039): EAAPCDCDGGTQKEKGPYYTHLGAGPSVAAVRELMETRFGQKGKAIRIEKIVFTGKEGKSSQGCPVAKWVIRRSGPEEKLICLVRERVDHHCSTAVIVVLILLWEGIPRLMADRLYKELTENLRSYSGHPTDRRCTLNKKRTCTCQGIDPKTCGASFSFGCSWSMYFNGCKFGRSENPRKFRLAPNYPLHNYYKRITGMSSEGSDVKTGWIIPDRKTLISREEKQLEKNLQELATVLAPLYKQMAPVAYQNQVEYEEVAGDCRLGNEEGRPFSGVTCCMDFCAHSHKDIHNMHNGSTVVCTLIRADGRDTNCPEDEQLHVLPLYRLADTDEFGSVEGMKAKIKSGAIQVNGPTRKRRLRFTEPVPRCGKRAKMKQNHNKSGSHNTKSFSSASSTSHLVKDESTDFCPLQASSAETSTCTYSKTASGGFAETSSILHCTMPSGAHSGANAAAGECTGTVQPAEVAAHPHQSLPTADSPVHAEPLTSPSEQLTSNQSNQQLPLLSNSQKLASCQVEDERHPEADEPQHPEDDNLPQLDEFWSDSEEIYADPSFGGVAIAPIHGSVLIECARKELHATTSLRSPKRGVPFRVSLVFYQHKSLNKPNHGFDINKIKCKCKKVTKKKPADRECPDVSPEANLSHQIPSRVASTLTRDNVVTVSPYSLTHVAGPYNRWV
Chain of Mbd4-Strep (Q9Z2D7 whole entry): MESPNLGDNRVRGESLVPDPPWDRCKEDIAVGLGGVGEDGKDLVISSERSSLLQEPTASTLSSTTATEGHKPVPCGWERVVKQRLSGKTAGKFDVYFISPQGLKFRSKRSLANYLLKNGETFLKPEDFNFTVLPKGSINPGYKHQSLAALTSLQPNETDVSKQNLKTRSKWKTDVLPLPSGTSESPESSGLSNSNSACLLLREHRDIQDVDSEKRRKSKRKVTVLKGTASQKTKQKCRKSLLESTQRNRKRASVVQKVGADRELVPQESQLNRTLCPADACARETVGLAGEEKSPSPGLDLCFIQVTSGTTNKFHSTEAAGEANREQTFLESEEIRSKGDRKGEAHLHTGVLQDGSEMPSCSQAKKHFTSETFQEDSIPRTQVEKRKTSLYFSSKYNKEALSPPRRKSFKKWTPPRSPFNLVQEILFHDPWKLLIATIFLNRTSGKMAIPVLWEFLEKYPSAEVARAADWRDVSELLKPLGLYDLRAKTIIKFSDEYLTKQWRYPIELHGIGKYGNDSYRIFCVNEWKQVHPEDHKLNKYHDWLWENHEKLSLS
Chain of MBD-YFP (MBD of Mecp2) (Q9Z2D6 77-167): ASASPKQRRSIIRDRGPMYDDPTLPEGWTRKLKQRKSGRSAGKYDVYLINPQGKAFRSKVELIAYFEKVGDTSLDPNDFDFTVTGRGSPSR

B1: mC:mC fully methylated CpG 42-mer (dsDNA)
DNA 1: CTCAACAACTAACTACCATCCGGACCAGAAGAGTCATCATGG
DNA 2: CCATGATGACTCTTCTGGTCCGGATGGTAGTTAGTTGTTGAG
modifications: 5mC at position 21 of both strands
binds: all assays above
